Each substance was assayed on C=CC(=O)SCCNC(=O)CCNC(=O)[C@H](O)C(C)(C)COP(=O)(O)OP(=O)(O)OC[C@H]1O[C@@H](n2cnc3c(N)ncnc32)[C@H](O)[C@@H]1OP(=O)(O)O (assay: purified protein). Conditions: apparent; kcat at 4.4 mM CO2, combined reduction and carboxylation.
Source text: steady-state kinetics, Michaelis-Menten fit on PCSEN_ΔDH (propionyl-CoA synthase, reductase domain activity)

| Substance | Km [µM] | kcat [s⁻¹] |
| --- | --- | --- |
| PCSEN_ΔDH (propionyl-CoA synthase, reductase domain activity) (Erythrobacter sp. NAP1; D1302S/E1027Q) | 27 ± 3 | 1.77 ± 0.09 |
| PCSEN_ΔDH (propionyl-CoA synthase, reductase domain activity) (Erythrobacter sp. NAP1; D1302S/E1027Q/T1753M) | 26 ± 3 | 0.46 ± 0.03 |
| PCSEN_ΔDH (propionyl-CoA synthase, reductase domain activity) (Erythrobacter sp. NAP1; E1027Q) | 14 ± 2 | 7.4 ± 1.0 |
| PCSEN_ΔDH (propionyl-CoA synthase, reductase domain activity) (Erythrobacter sp. NAP1; E1027Q/T1753M) | 19.7 ± 1.2 | 6.5 ± 0.6 |

From paper PMC6650136, “Awakening the Sleeping Carboxylase Function of Enzymes: Engineering the Natural CO2-Binding Potential of Reductases” (Journal of the American Chemical Society, 2019)
